Test results reported in patent US20140378536A1 (VALTED, published 2014).

Target: T1, FLAG-tagged PARIS (full-length PARIS, ZNF746, in pCMV-Tag2A) (human, UniProt Q6NUN9 1-644)
T1 construct: Expressed in SH-SY5Y cells from cDNA IMAGE:30347892; The construct limits it prints (1-644, 322-644) match the 644-residue human entry; also called FLAG-PARIS; pCMV-FLAG-PARIS; not shown: N-terminal FLAG tag of vector pCMV-Tag2A
Test: co-immunoprecipitation, IP of FLAG-PARIS (FIG. 20)
Procedure: For co-immunoprecipitation from cell cultures, SH-SY5Y cells were transfected with 2 μg of each plasmid, unless otherwise indicated.

T1 sequence (Q6NUN9 whole entry): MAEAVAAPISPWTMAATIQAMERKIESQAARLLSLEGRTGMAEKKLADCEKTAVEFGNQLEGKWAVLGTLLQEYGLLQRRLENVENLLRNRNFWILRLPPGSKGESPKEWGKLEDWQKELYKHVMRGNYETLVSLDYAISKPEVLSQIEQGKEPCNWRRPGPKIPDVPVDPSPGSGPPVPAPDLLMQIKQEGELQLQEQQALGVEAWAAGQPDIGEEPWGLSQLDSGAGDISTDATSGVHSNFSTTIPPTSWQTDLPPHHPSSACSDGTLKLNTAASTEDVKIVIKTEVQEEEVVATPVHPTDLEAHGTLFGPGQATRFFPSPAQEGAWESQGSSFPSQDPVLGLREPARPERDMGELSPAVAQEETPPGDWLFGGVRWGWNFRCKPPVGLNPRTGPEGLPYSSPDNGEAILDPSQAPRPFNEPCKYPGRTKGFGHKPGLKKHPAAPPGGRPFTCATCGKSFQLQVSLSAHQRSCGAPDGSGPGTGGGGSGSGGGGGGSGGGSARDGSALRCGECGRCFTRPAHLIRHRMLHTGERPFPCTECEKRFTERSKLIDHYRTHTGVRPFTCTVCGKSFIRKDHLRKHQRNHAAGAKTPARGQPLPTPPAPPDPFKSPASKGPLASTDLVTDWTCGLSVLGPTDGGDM

B1: HA-tagged parkin truncation, amino acids 1-198 (UBL-SH) (other, UniProt O60260 1-198, looked up)
chain: MIVFVRFNSSHGFPVEVDSDTSIFQLKEVVAKRQGVPADQLRVIFAGKELRNDWTVQNCDLDQQSIVHIVQRPWRKGQEMNATGGDDPRNAAGGCEREPQSLTRVDLSSSVLPGDSVGLAVILHTDSRKDSPPAGSPAGRSIYNSFYVYCKGPCQRVQPGKLRVQCSTCRQATLTLTQGPSCWDDVLIPNRMSGECQS
notes: range 1-198; also called N-terminal UBL-SH domain; not shown: HA tag of vector pRK5-HA
binding result: no binding
